The stoichiometry N is the number of molecules, sites or subunits per partner or assembly.

This experiment addresses recombinant Cse4 (S. cerevisiae) (UniProt P36012). In words: SEC. In general terms: SEC sorts molecules by how far they enter the pores of the column.

In the case of “recombinant Cse4 (from UniProt P36012 1-229) (natural protein; other documents disagree on this pair)”, the stoichiometry N is 2.
